Results published in US20250290928A1, “METHOD, KIT AND DEVICE FOR DETECTING EXTRACELLULAR VESICLES” (priority 2022, published 2025).
*: point of attachment. 5FAM = O=C1OC2(c3ccc(O)cc3Oc3cc(O)ccc32)c2ccc(C(=O)*)cc21; TQ2 = quencher

Key:
[1] = biological target: T1, MMP14 in the MDA-MB-231-derived extracellular vesicles (Homo sapiens, UniProt P50281); assay: Digital detection of MDA-MB-231-derived extracellular vesicles through MMP14 activity in wells (microcompartments); assay type: biochemical
T1 construct: in terms of intact MMP14 with a molecular weight of 70 kDa
Summary of the method: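 MDA-MB-231 extracellular-vesicle samples were mixed 1:1 with MMP14 detection solution. The reaction mix was sealed under fluorinated oil in 50 fL microwells (239,000-well array), giving digital single-well readout of MMP14 activity. Standard samples were prepared by serial dilution, and bulk MMP14 activity was also measured in 96-well format.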

[2] = biological target: T1, MMP14 in the MDA-MB-231-derived extracellular vesicles; assay: Evaluation of MMP14 activity of MDA-MB-231-derived extracellular vesicles with 96-well plate; assay type: biochemical; conditions: 37° C.; for reaction rate per 1 μg/mL of extracellular vesicles: within 1 hour
Summary of the method: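 MMP14 activity in extracellular vesicles was measured by adding detection solution to samples and reading fluorescence kinetically every 5 min. Conditions were 37° C. for 1 h (ex 485/em 528 nm) or 2 h (ex 325/em 392 nm), or 30° C. for 2 h (ex 545/em 588 nm). Background was subtracted to give ΔRFU.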

[3] = Example 18, 78.5 fL wells, EV 3.3 μg/mL, reporter 5 μM, 37° C., 3 hours, oil AE-3000 and Y25
[4] = Example 18, 78.5 fL wells, EV 3.3 μg/mL, reporter 5 μM, 37° C., 3 hours, oil Simoa
[5] = Example 19, 37° C., 3 h, EV 0.0001 a.u. (x1=10 μg/mL)
[6] = Example 19, 37° C., 3 h, EV 0.001 a.u. (x1=10 μg/mL)
[7] = Example 19, 37° C., 3 h, EV 0.01 a.u. (x1=10 μg/mL)
[8] = Example 19, 37° C., 3 h, EV 0.1 a.u. (x1=10 μg/mL)
[9] = Example 19, 37° C., 3 h, EV 1 a.u. (x1=10 μg/mL)
[10] = Example 19, 37° C., 7 h, EV 0.0001 a.u. (x1=10 μg/mL)
[11] = Example 19, 37° C., 7 h, EV 0.001 a.u. (x1=10 μg/mL)
[12] = Example 19, 37° C., 7 h, EV 0.01 a.u. (x1=10 μg/mL)
[13] = Example 19, 37° C., 7 h, EV 0.1 a.u. (x1=10 μg/mL)
[14] = Example 19, 37° C., 7 h, EV 1 a.u. (x1=10 μg/mL)
[15] = Example 22, buffer (2), 37° C., 1 h, EV 0 (free of extracellular vesicles)
[16] = Example 22, buffer (2), 37° C., 1 h, EV 0.111 a.u.
[17] = Example 22, buffer (2), 37° C., 1 h, EV 0.333 a.u.
[18] = Example 22, buffer (2), 37° C., 1 h, EV 1 a.u. (x1=10 μg/mL)
[19] = Example 22, buffer (2), 37° C., 2 h, EV 0 (free of extracellular vesicles)
[20] = Example 22, buffer (2), 37° C., 2 h, EV 0.111 a.u.
[21] = Example 22, buffer (2), 37° C., 2 h, EV 0.333 a.u.
[22] = Example 22, buffer (2), 37° C., 2 h, EV 1 a.u. (x1=10 μg/mL)
[23] = Example 9, EV 4 μg/mL, buffer (3), Lineweaver-Burk plots

Substance: [5-FAM]GGPLGLAGGK(TQ2)[OH] (5FAM-GGPLGLAGGK(TQ2)-OH) [Custom #2]
- Expected value λ [1, 3]: 0.235
- Number of positives [1, 3]: 3,094
- Positive ratio [1, 3]: 0.21
- Expected value λ [1, 4]: 0.188
- Number of positives [1, 4]: 2,529
- Positive ratio [1, 4]: 0.171
- Extracellular vesicle concentration ([1]; Example 18, oil AE-3000 and Y25): 9.1×10^8 /μg of protein
- Extracellular vesicle concentration ([1]; Example 18, oil AE-3000 and Y25, reaction solution 3.3 μg of protein/mL): 3e+09 mL⁻¹
- Extracellular vesicle concentration ([1]; Example 18, oil Simoa): 7.3×10^8 /μg of protein
- Extracellular vesicle concentration ([1]; Example 18, oil Simoa, reaction solution 3.3 μg of protein/mL): 2.4e+09 mL⁻¹
- Expected value λ [1, 5]: 0.000138
- Number of positives [1, 5]: 4
- Positive ratio [1, 5]: 0.000138
- Expected value λ [1, 6]: 0.0011
- Number of positives [1, 6]: 32
- Positive ratio [1, 6]: 0.0011
- Expected value λ [1, 7]: 0.00915
- Number of positives [1, 7]: 264
- Positive ratio [1, 7]: 0.00911
- Expected value λ [1, 8]: 0.0827
- Number of positives [1, 8]: 2,305
- Positive ratio [1, 8]: 0.0794
- Expected value λ [1, 9]: 0.717
- Number of positives [1, 9]: 14,539
- Positive ratio [1, 9]: 0.512
- Expected value λ [1, 10]: 0.000104
- Number of positives [1, 10]: 3
- Positive ratio [1, 10]: 0.000104
- Expected value λ [1, 11]: 0.000828
- Number of positives [1, 11]: 24
- Positive ratio [1, 11]: 0.000828
- Expected value λ [1, 12]: 0.0092
- Number of positives [1, 12]: 263
- Positive ratio [1, 12]: 0.00916
- Expected value λ [1, 13]: 0.0929
- Number of positives [1, 13]: 2,571
- Positive ratio [1, 13]: 0.0887
- Expected value λ [1, 14]: 2.33
- Number of positives [1, 14]: 26,093
- Positive ratio [1, 14]: 0.902
- Extracellular vesicle concentration ([1]; Example 19, 3 hours): 1.3×10^9 /μg of protein
- Extracellular vesicle concentration ([1]; Example 19, 3 hours, reaction solution 10 μg of protein/mL, 50 fL): 1.3e+10 mL⁻¹
- extracellular vesicles in which MMP14 activity can be detected, contained in 1 μL of the extracellular vesicles (50 μg of protein in 50 μL of PBS) ([1]; Example 19, 7 hours): 1.8×10^9
- Extracellular vesicle concentration ([1]; Example 19, 7 hours, reaction solution 10 μg of protein/mL, 50 fL): 1.8e+10 mL⁻¹
- λ at x1 from the approximation ([1]; Example 19, reaction time of 3 hours): 0.6727
- λ at x1 from the approximation ([1]; Example 19, reaction time of 7 hours): 0.8756
- expected value λ at x1 (power approximation) ([1]; Example 22, after 1 hour): 0.5098
- expected value λ at x1 (power approximation) ([1]; Example 22, after 2 hours): 0.7649
- Expected value λ [1, 15]: 0
- Number of positives [1, 15]: 0
- Positive ratio [1, 15]: 0
- Expected value λ [1, 16]: 0.0648
- Number of positives [1, 16]: 1,819
- Positive ratio [1, 16]: 0.0627
- Expected value λ [1, 17]: 0.193
- Number of positives [1, 17]: 5,094
- Positive ratio [1, 17]: 0.176
- Expected value λ [1, 18]: 0.497
- Number of positives [1, 18]: 11,360
- Positive ratio [1, 18]: 0.392
- Expected value λ [1, 19]: 0
- Number of positives [1, 19]: 0
- Positive ratio [1, 19]: 0
- Expected value λ [1, 20]: 0.0988
- Number of positives [1, 20]: 2,727
- Positive ratio [1, 20]: 0.0941
- Expected value λ [1, 21]: 0.267
- Number of positives [1, 21]: 6,788
- Positive ratio [1, 21]: 0.234
- Expected value λ [1, 22]: 0.774
- Number of positives [1, 22]: 15,608
- Positive ratio [1, 22]: 0.539
- extracellular vesicle concentration at which MMP14 activity was able to be detected in the microcompartments ([1]; Simoa Discs, buffer (4), reporter 5 μM, 37° C.): ≥ 1 ng/mL
- increase in fluorescence intensity (temporal change) ([2]; Example 4, EV 5 μg/mL, reporter 5 μM, Assay buffer (Component D)): more significant than that from SensoLyte 520 MMP-14
- reaction rate per 1 μg/mL of extracellular vesicles ([2]; Example 5, Assay buffer (Component D) of SensoLyte 520 MMP-14 Assay Kit, reporter 5 μM): 83.3 ΔRFU/min
- reaction rate per 1 μg/mL of extracellular vesicles ([2]; Example 8, buffer (2), reporter 5 μM): 99.0 ΔRFU/min
- Km [2, 23]: 0.511 µM
- Vmax [2, 23]: 582.411 ΔRFU/min
- extracellular vesicle concentration at which MMP14 activity was able to be detected with a 96-well plate ([2]; buffer (4), reporter 5 μM): ≥ 1 µg/mL
